Here are results for five molecules from paper PMC10917276, “A tick saliva serpin, IxsS17 inhibits host innate immune system proteases and enhances host colonization by Lyme disease agent” (PLOS Pathogens, 2024).

Sequences and labels used below:
B1: C-terminal hexa-histidine tagged recombinant Ixodes scapularis serpin 17 (rIxsS17) (natural protein)
chain: DDISQDKWKLARANNYLGLNLLKQLPSNDKTNVFFSPFSVSTAMGMAYAGARGDTLEQLTLNFGYAADELNEGKVLALFKEQLQSTNDLPHDYTLNIANAAVAQEGYGILPEYTDALTSSFGAEYIEADFQKRGQEAIQKINAWVSNRTHGKVQSLFDEPPDFSTRLILLNAIYYKGTWLYEFDKTKTKPRSFYNGGVEKVQVPMMRLKSTLNHTYNAILNADLVDLPYVGNDFSMTIILPREKTGLASLKSVLTSQTLNLALQNMYPKDMKLKLPKFKLDTKYTLKPTLEAMGITKIFSADADLSGISGSRNLYVSDVLHKAVLEVNEEGSEAAAVTGFVIQLRTAAFVTPPPLPKVYVDHPFIFLIRNSRTNTIMFLGEINAL
modifications: glycosylated (sites not given)
notes: Ixodes scapularis tick saliva serpin 17 (IxsS17), GenBank EEC18973.1; Codon-optimised synthetic gene in pPICZαA; also called C-terminal-His-rIxsS17; C-terminal His-tagged rIsS17; source: Pichia pastoris X33, secreted into medium, purified (ammonium sulfate, Hi-Trap Chelating HP); not shown: His6, C-terminal, kept
B2: rat skin trypsin IV (enzyme, UniProt P12788 24-247, looked up)
chain: IVGGYTCPKHLVPYQVSLHDGISHQCGGSLISDQWVLSAAHCYKRKLQVRLGEHNIHVLEGGEQFIDAEKIIRHPEYNKDTLDNDIMLIKLKSPAVLNSQVSTVSLPRSCASTDAQCLVSGWGNTVSIGGKYPALLQCLEAPVLSASSCKKSYPGQITSNMFCLGFLEGGKDSCDGDSGGPVVCNGEIQGIVSWGSVCAMRGKPGVYTKVCNYLSWIQETMANN
notes: rat trypsin IV, in house expressed; construct not described; also called rat trypsin IV; source: in house expressed
B3: blood clotting factor Xa (enzyme)
chain 1: ANSFLEEMKKGHLERECMEETCSYEEAREVFEDSDKTNEFWNKYKDGDQCETSPCQNQGKCKDGLGEYTCTCLEGFEGKNCELFTRKLCSLDNGDCDQFCHEEQNSVVCSCARGYTLADNGKACIPTGPYPCGKQTLER
chain 2: IVGGQECKDGECPWQALLINEENEGFCGGTILSEFYILTAAHCLYQAKRFKVRVGDRNTEQEEGGEAVHEVEVVIKHNRFTKETYDFDIAVLRLKTPITFRMNVAPACLPERDWAESTLMTQKTGIVSGFGRTHEKGRQSTRLKMLEVPYVDRNSCKLSSSFIITQNMFCAGYDTKQEDACQGDSGGPHVTRFKDTYFVTGIVSWGEGCARKGKYGIYTKVTAFLKWIDRSMKTRGLPKAKSHAPEVITSSPLK

The target in assay [1] is bovine pancreatic trypsin (bovine).
For assay [2] the target is unchanged. In words: discontinuous inhibition kinetics from residual protease activity (second-order rate constant); rIxsS17 50-1000 nM with bovine trypsin 14.6 nM, trypsin IV 12.5 nM or fXa 13.9 nM for 0-15 min at 37°C; kobs from semi-log plots, ka from the slope of kobs against rIxsS17 concentration.
The target is the same in assay [3]. Description: stoichiometry of inhibition from residual protease activity (substrate hydrolysis); molar ratios of His-tagged rIxsS17 to protease 0, 2.5, 5, 10, 20, 25, 50; 15 min at 37°C; bovine trypsin 1.5 nM, rat trypsin IV 2.0 nM or factor Xa 13.9 nM; linear regression extrapolated to zero activity.
The assay “blood clotting factor Xa” concerns the target B3. The description is as above. To be noted: both partners purified.
The assay “rat skin trypsin IV” has as its target B2. Described as above. To be noted: both partners purified.
Assay [4] deals with B1. Description: discontinuous inhibition kinetics from residual protease activity (second-order rate constant); rIxsS17 50-1000 nM with bovine trypsin 14.6 nM, trypsin IV 12.5 nM or fXa 13.9 nM for 0-15 min at 37°C; kobs from semi-log plots, ka from the slope of kobs against rIxsS17 concentration. The settings on record: both partners purified.

Regarding “N-terminal hexa-histidine tagged rIxsS17 with TEV site (natural protein)”, the decrease in the inhibitory activity against trypsin of the N-terminal hexa-His construct (substrate hydrolysis assay) in assay [1] came to 8.6%. “C-terminal hexa-histidine tagged recombinant Ixodes scapularis serpin 17 (rIxsS17) (from UniProt A0ACM8DKW3 71-455) (natural protein)” gave a kon in assay [2] of 2700 M⁻¹ s⁻¹. The stoichiometry of inhibition (SI) in assay [3] was 12.9.

As for B1, the “stoichiometry of inhibition (SI)” value in the assay with blood clotting factor Xa is 68; with rat skin trypsin IV, 10.5. For B2, the kon in assay [4] turned out to be 3900 M⁻¹ s⁻¹. As to B3, the on-rate (kon) in assay [4] was found to be 540 M⁻¹ s⁻¹.

For orientation: kon means the second-order rate constant of association.
